Reference: PMC5073374

Biological target: Link module from human TSG-6 (Link_TSG6) (human) (UniProt P98066)
Assay: AUC

stoichiometry N: 2
Substance: Link module from human TSG-6 (Link_TSG6) (from UniProt P98066 36-133) (domain or fragment)
